Results from patent publication US20260356956 (published 2026).

T1: mouse P-selectin (mouse, UniProt Q01102)
T1 chain: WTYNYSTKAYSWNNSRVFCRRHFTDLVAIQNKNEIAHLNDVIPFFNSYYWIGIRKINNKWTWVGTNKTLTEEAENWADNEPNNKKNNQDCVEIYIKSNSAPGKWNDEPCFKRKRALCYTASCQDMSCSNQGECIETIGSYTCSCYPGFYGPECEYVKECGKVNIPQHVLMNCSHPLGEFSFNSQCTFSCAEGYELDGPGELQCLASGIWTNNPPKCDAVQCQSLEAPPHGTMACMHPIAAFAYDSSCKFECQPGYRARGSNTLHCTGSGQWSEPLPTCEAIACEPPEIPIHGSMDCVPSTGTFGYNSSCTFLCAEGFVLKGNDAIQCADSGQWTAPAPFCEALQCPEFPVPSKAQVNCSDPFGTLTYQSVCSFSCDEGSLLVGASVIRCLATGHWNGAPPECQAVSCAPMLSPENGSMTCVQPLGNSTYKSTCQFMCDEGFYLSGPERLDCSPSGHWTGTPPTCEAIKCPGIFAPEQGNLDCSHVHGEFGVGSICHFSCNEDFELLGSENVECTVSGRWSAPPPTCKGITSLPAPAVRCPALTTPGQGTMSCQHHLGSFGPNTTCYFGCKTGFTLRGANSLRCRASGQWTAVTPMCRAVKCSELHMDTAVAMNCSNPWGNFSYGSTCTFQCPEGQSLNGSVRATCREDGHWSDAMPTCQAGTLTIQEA

B1: B.PSelscFv-Crry (2.12scFv-Crry, blocking) (antibody)
chain: MPMGSLQPLATLYLLGMLVASVLAHHHHHHIEGREVKLVESGGGLVQPGSSMKLSCTTSGFTFSDYYMAWVRQVPEKGLEWVANINYDGSSAYYLDSFKSRFTISRDNEKNILYLQMSSLKSEDTATYYCARGDWFVYWGQGTLVTVSAGGGGSGGGGSGGGGSDIQMTQSPSSMSASLGERVTITCKASQDINSYLNWFQQKPGKSPKTLIFRANRLVDGVPSRFSGSGSGQDYSLTISSLEFEDVGIYYCLQYAEFPFTFGSGTKLEIKGGGGSGGGGSCPAPSQLPSAKPINLTDESMFPIGTYLLYECLPGYIKRQFSITCKQDSTWTSAEDKCIRKQCKTPSDPENGLVHVHTGIQFGSRINYTCNQGYRLIGSSSAVCVITDQSVDWDTEAPICEWIPCEIPPGIPNGDFFSSTREDFHYGMVVTYRCNTDARGKALFNLVGEPSLYCTSNDGEIGVWSGPPPQCIELNKCTPPPYVENAVMLSENRSLFSLRDIVEFRCHPGFIMKGASSVHCQSLNKWEPELPSCFKGVICRLPQEMSGFQKGLGMKKEYYYGENVTLECEDGYTLEGSSQSQCQSDGSWNPLLAKCVSRSIIEGRHHHHHH
B2: NB.PSelscFv-Crry (2.3scFv-Crry, non-blocking) (antibody)
chain: MSVPTQVLGLLLLWLTDARCQIQLVLSGPELKKPGESVKISCKASGYTFTTYGMSWVKQAPGKGLKWMGWINTSSGVPTYADDFKGRFAFSLETSASTAYLQINNLKNEDTATYFCARGGGYYGAYYFYYWGQGTTLTVSSGGGGSGGGGSGGGGSDIQMTQSPASLSASVGETVTITCRTSDNINSYLAWYLQRQGKSPQLLVYNAKTLTEGVPSRFSGSGSGTQFSLKINSLQPEDFGSYYCQHHYGPPPTFGGGTKLEIKGGGGSGGGGSCPAPSQLPSAKPINLTDESMFPIGTYLLYECLPGYIKRQFSITCKQDSTWTSAEDKCIRKQCKTPSDPENGLVHVHTGIQFGSRINYTCNQGYRLIGSSSAVCVITDQSVDWDTEAPICEWIPCEIPPGIPNGDFFSSTREDFHYGMVVTYRCNTDARGKALFNLVGEPSLYCTSNDGEIGVWSGPPPQCIELNKCTPPPYVENAVMLSENRSLFSLRDIVEFRCHPGFIMKGASSVHCQSLNKWEPELPSCFKGVICRLPQEMSGFQKGLGMKKEYYYGENVTLECEDGYTLEGSSQSQCQSDGSWNPLLAKCVSRSIIEGRHHHHHH

Biological target: T1, mouse P-selectin
Experiment: SPR, 25C

Row | Binder | Kd
1 | B1 | 333 nM
2 | B2 | 630 nM
